Consider three substances from patent US20090325262A1, “Immobilization of biological molecules onto surfaces coated with monolayers” (SURFACE LOGIX, INC., priority 2001, published 2009).

For data set [1], the target named is biotin-NH-Arg-Asp-Cys-CONH2. The experiment in a line: SPR, fibrinogen (0.5 mg/mL) flowed over 2% maleimide SAM treated with the peptide; FIG. 4. On the technique in general: SPR reads the build-up and loss of mass on a sensor chip optically.
Data set [2] concerns the target biotin-NH-Arg-Asp-Cys-CONH2. The experiment in a line: SPR (Biacore 3000), streptavidin flowed over 2% maleimide SAM treated with the peptide (1.2 mM, 12 min); FIG. 3 sensorgram A.
Data set [3] deals with CCCC(=O)Oc1ccc([N+](=O)[O-])cc1. The experiment in a line: purified protein, by the assay type. The conditions noted are these: other: substrate of recombinant cutinase; release of PNP followed by absorbance.
Method: The cutinase concentration was 1 M. The release of PNP was followed using absorbance spectroscopy.
Spectrophotometric measurement was performed at room temperature using BECKMAN DU-640 spectrophotometer (BECKMAN COULTER, INC., Fullerton, Calif.). Esterase activity of purified recombinant cutinase was measured by monitoring p-nitrophenol butyrate (PNB) hydrolysis rates at 410 nm (=8,800 M-1 cm-1) in buffer A.

In data set [1], fibrinogen yielded an SPR response (RU) of 60 RU.

In data set [2], “streptavidin (from UniProt P22629 37-163)” gave an SPR response (RU) of 2280 RU.

On to cutinase (Fusarium vanettenii), for which the Michaelis constant (Km) (as a rule, the concentration of substrate that gives half-maximal velocity) in data set [3] came out at 1000 µM.
